Where a chain is given by its changes, count along the chain named. Names may count otherwise.
Key:
[1] = target: the molecule itself; assay: crystal structure; H206A Orai_(cryst), space group I4_(1), 6.7 Å, 24 subunits (four channels) in the asymmetric unit, 24-fold NCS averaging; crystals grown in 36-38% PEG400, 500 mM NaCl, 100 mM Tris-HCl pH 9.0
[2] = target: the molecule itself; assay: crystal structure; K163W Orai_(cryst), space group I4_(1), 6.1 Å, MIRAS, 24-fold NCS averaging; crystals grown in 26-28% PEG 400, 150 mM NaCl, 100 mM HEPES pH 7.5
[3] = target: the molecule itself; assay: crystal structure; WT Orai_(cryst), space group I4_(1), 6.9 Å, MR-SAD, 24-fold NCS averaging; crystals grown in 32-35% PEG 400, 0.1 M potassium phosphate pH 7.5

B1: H206A Orai_(cryst) (natural protein, Drosophila melanogaster, UniProt Q9U6B8 133-341, looked up)
chain: MSQSGEDLHSPTYLSWRKLQLSRAKLKASSKTSALLSGFAMVAMVEVQLDHDTNVPPGMLIAFAICTTLLVAVAMLALMISTCILPNIETVSNLHSISLVHESPHERLHWYIETAWAFSTLLGLILFLLEIAILCWVKFYDLSPPAAWSATVVLIPVMIIFMAFAIHFYRSLVSHKYEVTVSGIRELEMLKEQMEQDHLEHHNNIRNNG
notes: Hexameric channel; The model holds residues 148-327 without 181-191 and 220-239; also called open conformation
stoichiometry N [1]: 6

B2: K163W Orai_(cryst) (natural protein, Drosophila melanogaster, UniProt Q9U6B8 133-341, looked up)
chain: B1 chain with K31W, A74H
notes: Hexameric channel, solved in two crystal forms (I4_(1) and P4_(2)2_(1)2); also called K163W mutant
stoichiometry N [2]: 6

B3: WT Orai_(cryst) (natural protein, Drosophila melanogaster, UniProt Q9U6B8 133-341, looked up)
chain: B1 chain with A74H
notes: Drosophila melanogaster Orai, amino acids 133-341, with C224S and C283T (made to improve stability); wild-type Pro276 and Pro277; 24 subunits in four channels in the asymmetric unit (24-fold NCS), which makes six a channel; The model holds residues 148-327 without 181-191 and 220-239; also called wild-type (WT) Orai_(cryst); unlatched-closed conformation
binding result [3]: binds

Source: publication PMC6170153, “Structures reveal opening of the store-operated calcium channel Orai” (eLife, 2018)
